Test results from US20240052063A1, “Binding Proteins 2” (Nucleus Therapeutics Pty. Ltd., priority 2017, published 2024).
Numbering of substitutions follows the chain as printed. Entries after “also recorded” stand apart in the source; their conditions may differ.

B1: Variant 10: cell penetrating anti-DNA di-scFv variant, amino acid sequence SEQ ID NO: 38 (protein)
scFv: DIQMTQSPSSLSASVGDRVTITCRASKSVSTSSYSYMHWYQQKPGKAPKLLIKYASYLESGVPSRFSGSGSGTDFTLTISSLQPEDFATYYCQHSREFPWTFGQGTKVEIKRADAAPGGGGSGGGGSGGGGSEVQLVESGGGLVQPGGSLRLSCAASGFTFSNYGMHWVRQAPGKGLEWVSYISSSSSTIYYADSVKGRFTISRDNAKNSLYLQMNSLRAEDTAVYYCARRGLLLDYWGQGTTVTVSSASTKGPSVFPLAPLESSGSDIQMTQSPSSLSASVGDRVTITCRASKSVSTSSYSYMHWYQQKPGKAPKLLIKYASYLESGVPSRFSGSGSGTDFTLTISSLQPEDFATYYCQHSREFPWTFGQGTKVEIKRADAAPGGGGSGGGGSGGGGSEVQLVESGGGLVQPGGSLRLSCAASGFTFSNYGMHWVRQAPGKGLEWVSYISSSSSTIYYADSVKGRFTISRDNAKNSLYLQMNSLRAEDTAVYYCARRGLLLDYWGQGTTVTVSS
modifications: Variant 10
B2: Variant 16: cell penetrating anti-DNA di-scFv variant, amino acid sequence SEQ ID NO: 44 (protein)
scFv: B1 scFv with S28T, S186G, S295T, S453G
modifications: Variant 16
B3: Variant 11: cell penetrating anti-DNA di-scFv variant, amino acid sequence SEQ ID NO: 39 (protein)
scFv: B1 scFv with L143V, G174E, A207S, S210T, L410V, G441E, A474S, S477T
modifications: Variant 11
B4: Variant 13: cell penetrating anti-DNA di-scFv variant, amino acid sequence SEQ ID NO: 41 (protein)
scFv: DIQMTQSPSSLSASLGDRATITCRASKTVSTSSYSYMHWYQQKPGQPPKLLIKYASYLESGVPSRFSGSGSGTDFTLTISSLQPEDAATYYCQHSREFPWTFGGGTKVEIKRADAAPGGGGSGGGGSGGGGSEVQLVESGGGLVQPGGSLRLSCAASGFTFSNYGMHWVRQAPGKGLEWVSYISSGSSTIYYADSVKGRFTISRDNAKNSLYLQMNSLRAEDTAVYYCARRGLLLDYWGQGTTVTVSSASTKGPSVFPLAPLESSGSDIQMTQSPSSLSASLGDRATITCRASKTVSTSSYSYMHWYQQKPGQPPKLLIKYASYLESGVPSRFSGSGSGTDFTLTISSLQPEDAATYYCQHSREFPWTFGGGTKVEIKRADAAPGGGGSGGGGSGGGGSEVQLVESGGGLVQPGGSLRLSCAASGFTFSNYGMHWVRQAPGKGLEWVSYISSGSSTIYYADSVKGRFTISRDNAKNSLYLQMNSLRAEDTAVYYCARRGLLLDYWGQGTTVTVSS
modifications: Variant 13
B5: Variant 15: cell penetrating anti-DNA di-scFv variant, amino acid sequence SEQ ID NO: 43 (protein)
scFv: B4 scFv with L143D, Q145K, G174E, A207S, S210T, L410D, Q412K, G441E, A474S, S477T
modifications: Variant 15

What was measured:
[1] = test system: HDR-proficient DLD1 cells; assay: Selectivity of combination therapy in HDR-proficient cells; assay type: cell-based; settings: 5 nM olaparib, 10 μM di-scFv, alone or combined
Method: Homology-directed repair (HDR) deficient BRCA2-DLD1 cells and PTEN-U251 cells were treated with control, 5 nM olaparib, 10 μM di-scFv, or 10 μM di-scFv+5 nM olaparib. Surviving fraction was determined by colony formation assay.
It was then determined whether the combination of di-scFv and olaparib is simply universally cytotoxic, regardless of DNA repair status. To evaluate this possibility, HDR-proficient DLD1 cells were treated with the above regimen to confirm selectivity of combination therapy to HDR-deficient malignant cells.

[2] = test system: PTEN-deficient U87 human glioma cells; assay: Cell viability by Trypan blue exclusion assay and light microscopy; assay type: cell-based; settings: PTEN-deficient U87, 7 days after treatment, FIG. 9
Method: Cell viability of PTEN-deficient U87 human glioma cells was also assessed following treatment with control media or media containing Variants 10, 13, 15, or 16. Cell viability was determined 7 days after treatment using Trypan blue exclusion assay and by direct visualization of cell morphology by light microscopy.

[3] = test system: BRCA2-proficient DLD1 colon cancer cells; assay: Cell viability by Trypan blue exclusion assay, BRCA2-proficient cells; assay type: cell-based; settings: BRCA2-proficient DLD1, 7 days, FIG. 10
Method: (§1) Next, a matched pair of BRCA2-proficient and deficient DLD1 colon cancer cells was treated with control media or media containing Variants 10, 13, 15, or 16. Cell viability was determined 7 days later by Trypan blue exclusion assay and by direct visualization of cell morphology by light microscopy. […] Representative light microscope images shown the changes in morphology in the BRCA2-deficient cancer cells treated with the variants are shown in FIG. 10, Panel A. Quantitative analysis of the cell survival by Trypan blue exclusion assay is shown in FIG. 10, Panel B.

[4] = test system: PTEN-deficient U251 human glioma cells; assay: Phospho-53BP1 foci accumulation (DNA damage), PTEN-deficient cells; assay type: cell-based
Method: A matched pair of PTEN-proficient and deficient U251 human glioma cells were treated with control media or media containing Variant 10, 11, 13, 15, or 16 for twenty-four hours. Cells were then washed, fixed, blocked, and then probed with an anti-phospho-53BP1 antibody overnight. Cells were then washed and incubated with an AlexaFluor555-conjugated secondary antibody. Finally, cells were washed, counterstained with DAPI, and visualized under a fluorescence microscope. Images were saved and evaluated by CellProfiler to determine mean number of phospho-53BP1 foci per cell.
(§2) A matched pair of BRCA2-proficient and deficient DLD1 colon cancer cells and PTEN-proficient and deficient U251 human glioma cells were treated with control media or media containing 10 μM di-scFv variant 13 (SEQ ID NO: 41), 5 nM olaparib, or combination treatment.

[5] = test system: BRCA2-deficient DLD1 colon cancer cells; assay: Cell viability by Trypan blue exclusion assay, BRCA2-deficient cells; assay type: cell-based; settings: BRCA2-deficient DLD1, 7 days, FIG. 10
Method: as §1

[6] = test system: GBM cells extracted from human GBM tumours (intracranial); assay: Orthotopic mouse model of GBM; assay type: in vivo
From the text: An orthotopic mouse model of GBM was generated by intracranial injection of GBM cells extracted from human GBM tumours.

[7] = test system: Primary human glioblastoma (GBM) cancer cells; assay: Percentage of live cells by trypan blue staining; assay type: cell-based; settings: seven primary human GBM tumour explants, FIG. 14; listed as di-scFv (SEQ ID NO: 41)
Method: Primary human glioblastoma (GBM) cancer cells extracted from primary human GBM tumours from patients were treated with control or di-scFv (SEQ ID NO: 41), and percentage of live cells was evaluated by trypan blue staining.

[8] = test system: human GBM cancer stem cells (CSCs) grown as tumour spheres; assay: GBM cancer stem cell tumour spheres: penetration and sphere volume; assay type: cell-based; settings: listed as di-scFv (SEQ ID NO: 41)
Method: GBM cancer stem cells extracted from primary human GBM tumours from patients and grown as spheres were treated with control or di-scFv (SEQ ID NO: 41), and the effect of dose and incubation time on reduction of sphere volume was evaluated by confocal micrographs of DX1-rhodamine cellular penetration into GBM cells. Tumour spheres are recognised as a useful tool for pre-clinical studies as they retain tumour heterogeneity and more closely represent the original patient tumour.

DLD1 colon cancer cells = assay: Alkaline phosphatase-based survey of nuclear penetration; assay type: cell-based; settings: DLD1 cells treated one hour; FIG. 5
[9] = test system: BRCA2-deficient DLD1 colon cancer cells; assay: Phospho-53BP1 foci accumulation, BRCA2-deficient cells; assay type: cell-based; settings: FIG. 17
Method: as §2

MCF-7 cells = assay: Nuclear penetration by protein L immunostain of fixed cells; assay type: cell-based; settings: FIG. 12, listed as di-scFv (SEQ ID NO: 41)
Method: (§3) DLD-1 and MCF-7 cells were treated with control or di-scFv (SEQ ID NO: 41), and nuclear penetration was evaluated by protein L immunostain of fixed cells.

DLD-1 cells = assay: as above; assay type: cell-based; settings: FIG. 11, listed as di-scFv (SEQ ID NO: 41)
Method: as §3

[10] = PTEN-deficient U251, twenty-four hours, FIG. 8

Molecule	cell death [1]	cell viability relative to control treated cells [2]	cell viability (toxicity) [3]	mean number of phospho-53BP1 foci per cell [4, 10]	cell viability (cell killing) [5]	nuclear penetration (histogram of cell counts versus nuclear staining intensity) relative to the yeast prototype (DLD1 colon cancer cells)	further results
O=C(c1cc(Cc2n[nH]c(=O)c3ccccc23)ccc1F)N1CCN(C(=O)C2CC2)CC1 [olaparib, reference compound]	remain resistant						
B1		caused reductions in cell viability	not toxic	increased the number of foci	killed by the variants		
B2		caused reductions in cell viability	not toxic	increased the number of foci	killed by the variants		
B3				increased the number of foci			
B4	No effect on cell death	caused reductions in cell viability	not toxic	increased the number of foci	killed by the variants	notable right shift and narrowing of distributions relative to the yeast prototype	incidence of apoptosis in tumours (TUNEL staining) ([6]; FIG. 16B): increased incidence of apoptosis; toxicity or weight loss associated with treatment ([6]; body weight profile, FIG. 16D): No toxicity or weight loss; median survival longer than controls ([6]; controls median 72 days): more than 20%; mean survival ([6]; group of 7 mice, FIG. 16E): 83 days; median survival ([6]; group of 7 mice, FIG. 16E): 87 days; di-scFv in adjacent normal brain cells (protein L immunostaining) ([6]; normal brain, FIG. 16C): not evident; crossing of the blood brain barrier ([6]; suggested by tumour size reduction and TUNEL staining): successfully crossed the blood brain barrier; reduction of glioblastoma tumour size versus control mice ([6]; tail vein injection, brain sections, FIG. 16A): more than 40%; di-scFv in GBM tumour cells (protein L immunostaining) ([6]; tumour tissue, FIG. 16C): detected in the nuclei of GBM tumour cells; cancer cell death (percentage of live cells) [7]: Five of the seven glioblastoma tumour explants treated with di-scFv (SEQ ID NO: 41) showed significant cancer cell death; also recorded: kills primary human glioblastoma cells; cellular penetration into GBM spheres ([8]; confocal micrographs, FIG. 15A): demonstrated cellular penetration in GBM spheres; also recorded: penetrates human glioblastoma spheres; sphere volume ([8]; effect of dose and incubation time, FIG. 15B, C): reduced sphere volume in dose-dependent and time-dependant manner; also recorded: reduces sphere volume in a time-dependent (B) and dose-dependent (C) manner; percentage of P53BP1-positive cells ([4]; HDR-deficient U251, 24 hour treatment, FIG. 17): increased; mean number of phospho-53BP1 foci per cell ([4]; PTEN-deficient U251, 10 μM di-scFv, 5 nM olaparib, FIG. 17): increased the number of phospho-53BP1 foci; mean number of phospho-53BP1 foci per cell ([9]; BRCA2-deficient DLD1, 10 μM di-scFv, 5 nM olaparib): increased the number of phospho-53BP1 foci; percentage of P53BP1-positive cells ([9]; HDR-deficient DLD1, 24 hour treatment): increased; nuclear penetration (MCF-7 cells): successfully penetrated; also recorded: penetrates HDR deficient MCF-7 breast cancer cell nuclei; nuclear penetration (DLD-1 cells): successfully penetrated; also recorded: penetrates HDR deficient DLD-1 colon cancer cell nuclei
B5		caused reductions in cell viability	not toxic	increased the number of foci	killed by the variants	notable right shift and narrowing of distributions relative to the yeast prototype	
